Source: publication PMC4348336 (Biochemistry, 2015)

Biological target: Creatine kinase brain type (CKB) (UniProt P12277 1-381)
Experiment: SEC-MALS

Chain of Creatine kinase brain type (CKB) (P12277 whole entry): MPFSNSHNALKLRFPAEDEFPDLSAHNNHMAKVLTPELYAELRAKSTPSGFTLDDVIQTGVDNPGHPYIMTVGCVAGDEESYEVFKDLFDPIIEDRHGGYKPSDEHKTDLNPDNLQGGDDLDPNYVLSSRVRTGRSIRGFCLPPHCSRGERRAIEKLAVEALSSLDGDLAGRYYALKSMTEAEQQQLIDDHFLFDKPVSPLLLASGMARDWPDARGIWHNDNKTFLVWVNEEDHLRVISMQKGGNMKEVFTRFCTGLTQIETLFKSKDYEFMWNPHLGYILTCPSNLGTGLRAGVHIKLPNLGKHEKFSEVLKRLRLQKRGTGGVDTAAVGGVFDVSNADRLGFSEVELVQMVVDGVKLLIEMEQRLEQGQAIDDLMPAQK

stoichiometry N: 1 ASB9 per CK dimer
B1: ASB9(1-252) (domain or fragment, UniProt Q96DX5 1-252, looked up)
chain: MDGKQGGMDGSKPAGPRDFPGIRLLSNPLMGDAVSDWSPMHEAAIHGHQLSLRNLISQGWAVNIITADHVSPLHEACLGGHLSCVKILLKHGAQVNGVTADWHTPLFNACVSGSWDCVNLLLQHGASVQPESDLASPIHEAARRGHVECVNSLIAYGGNIDHKISHLGTPLYLACENQQRACVKKLLESGADVNQGKGQDSPLHAVARTASEELACLLMDFGADTQAKNAEGKRPVELVPPESPLAQLFLER
